Measured values: the supplement of paper PMC12042874
± gives the uncertainty stated by the source.

Test: amyloid nucleation score (Sup35N fusion, yeast selection) (log enrichment); library NNK2; higher = more nucleation; inactive = no reads after selection
In short: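 Growth for 7 days at 30°C on medium lacking adenine and uracil followed a 24-hour induction with 100 μM copper sulfate of psi-negative yeast expressing peptides of 20 random codons fused to Sup35N. Input and output plasmid inserts were sequenced with Illumina, and sequences with under 100 input reads were excluded. Nucleation score is the DiMSum log enrichment of output over input reads, centred on the mode score of non-aggregating sequences.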

Point of comparison: FLFNVSGLYIGWSLVPTNLD, amyloid nucleation score -0.33 ± 0.76. Against it:
- FKGSWHAFECEAYEYAWV — within error, -0.018 ± 1.1
- FKKAMHKPKSWAFSEKGRTN — within error, -1.27 ± 0.61
- FKRRCVDYNFSVVILLH — lower, -2.03 ± 0.76
- FKSLVVSLCIPSDMNNLKCS — within error, -0.474 ± 0.79
- FLAILWLFMLGKVSGCVDKW — within error, -0.155 ± 0.49
- FLCYKISSFVSICKQQEAHA — within error, -0.064 ± 1.1
- FLGWPGIRQCLLFVANNRGR — within error, -0.448 ± 0.76
- FLIFINMGIRRIRHV — within error, -1.37 ± 0.75
- FLIFVFLLYGPEMSDYCWTF — within error, 0.14 ± 1
- FLINFAMIISIFRLSYHRPV — within error, -0.599 ± 0.55
- FLKCNLTVDLIVMMKNIFSY — higher, 1.02 ± 0.39
- FLLCIRLRVNNNVRNN — within error, -0.763 ± 1.1
- FLLWIHF — higher, 1.04 ± 0.44
- FLMEVSLTLSFLERSNVLKG — higher, 3.8 ± 0.067
- FLRILFFGLGVMLQIRFFVH — within error, -0.569 ± 0.37
- FLSCQTYRKNQADNADASSI — within error, -0.076 ± 0.56
- FLSLLR — within error, -1.05 ± 0.42
- FLTLATSTCGPACVW — higher, 6.99 ± 0.07
- FLWVLIQANYLLTEMELSSG — within error, -0.447 ± 1.1
- FLYLALCKI — higher, 2.49 ± 0.14
- FMEGTRHCGKYFSC — higher, 0.938 ± 0.26
- FMFRQCSQFMMGYYLLNG — within error, 0.313 ± 0.46
- FMGSSIGLSSCPLEDTYVLP — within error, -0.403 ± 1
- FMKSNWIGTT — within error, -0.909 ± 0.39
- FMLNYERL — within error, -1.08 ± 0.42
- FMSICR — higher, 1.47 ± 0.4
- FNCHCSLSLVNHLASFTLSF — higher, 1.8 ± 0.16
- FNCPRSAMIVNQRHRILSGV — within error, -0.057 ± 0.43
- FNGSYASILKTSNRDTFDAL — higher, 0.61 ± 0.15
- FNIERCLLISGMLCSPAVEL — within error, -0.602 ± 1.1
- FNKNDNYYSAR — within error, -0.753 ± 0.78
- FNLSGWLMSSIRNNFLVPG — within error, -1.01 ± 0.61
- FNVFFAS — higher, 5.97 ± 0.055
- FNVSVCCG — within error, 0.607 ± 0.65
- FPCAMYTEWHVAVTVSICYG — within error, -0.36 ± 0.76
- FPFKILSVKPH — higher, 3.45 ± 0.14
- FPGPRRLSWFPGVQRVSMMI — within error, -0.243 ± 0.79
- FPLIDTYLEFMEPNGYWNSS — within error, 0.516 ± 0.81
- FPLWSCSHTIINML — higher, 5.858 ± 0.037
- FPTFVAMW — within error, 0.35 ± 0.23
- FQHNVAIKRWRRLADSLYSV — within error, 0.723 ± 0.57
- FQLYT — within error, 0.238 ± 0.29
- FRCHYFNWNDFALAVSFSKE — the same, -0.33 ± 0.38
- FRDQGIFIHLWS — within error, 0.781 ± 0.44
- FRFFCHISMNLGTLWRLDCL — within error, -0.405 ± 0.44
- FRHCTFRLFHAHK — within error, -0.378 ± 1
- FRLFVKNKGRELICDLWVCT — within error, -0.024 ± 1
- FRQFS — within error, 0.285 ± 1
- FRQRDKRVTEMTPAERGGQ — higher, 2.79 ± 0.091
- FRVKLTLRFLNITECCLDYL — higher, 3.29 ± 0.095
- FRVVRFVQTGSTFSIARFIK — within error, -0.83 ± 0.39
- FSACFGCFVLAKSNHY — higher, 0.955 ± 0.25
- FSAVHAHQQNLLVVFYTCCA — higher, 3.97 ± 0.08
- FSCEACIFLLYSYMFMNL — within error, -0.522 ± 0.55
- FSDDLVRDV — within error, -0.505 ± 0.28
- FSDNTVNTQQVEGIYQIDPN — within error, -0.705 ± 0.46
- FSGKMN — within error, 0.301 ± 0.57
- FSLCDILVLVNTNAGWAAFD — within error, -0.352 ± 1
- FSLEMTLFWPVFRLCPISSL — within error, 0.606 ± 0.66
- FSLHKCNVRLGISNGT — within error, -0.276 ± 0.48
- FSLPFC — within error, 0.246 ± 0.49
- FSMLF — within error, -0.462 ± 0.56
- FSNTYHFCISNYMWLNEVLM — higher, 1.36 ± 0.19
- FSRWVVVLVVQLWSLALRSN — within error, 0.369 ± 0.65
- FSSSNSIFKFVLNVRCTGVK — higher, 5.045 ± 0.049
- FSSSYCNVYYWFYMFFHWG — higher, 1.25 ± 0.14
- FSVFTD — within error, -0.678 ± 0.61
- FSVRLISFRSSLLLMSQDLL — within error, 0.138 ± 1.1
- FSWASAQLIHSV — within error, 0.59 ± 0.64
- FSYNMACLNKLLSLSLYRFS — within error, -1.29 ± 0.44
- FTAMNIGNACMESQALPWNL — within error, 0.198 ± 0.65
- FTCDSSLYAES — within error, -0.485 ± 0.41
- FTCFFLVLRVKSLLMVSAVG — higher, 6.34 ± 0.079

With FKWALFG the amyloid nucleation score was “inactive”.
In the case of FLFSIF, the amyloid nucleation score is reported as “inactive”.
In the case of FLLSV, the amyloid nucleation score is reported as “inactive”.
In the case of FLNDI, the amyloid nucleation score is reported as “inactive”.
With FLYPRYLVVMKHVLAGRCVA the amyloid nucleation score was “inactive”.
For FMWVNS, the amyloid nucleation score was “inactive”.
For FPHLFKSKNPSRNMNSTSPG, the amyloid nucleation score was “inactive”.
For FRFANRVTIKSFLGV, the amyloid nucleation score was “inactive”.
For FRMGY, the amyloid nucleation score was “inactive”.
In the case of FRNPHYASHGQYHYRFNMRY, the amyloid nucleation score is reported as “inactive”.
In the case of FSLQCPFSERKIYRRLCSPS, the amyloid nucleation score is reported as “inactive”.
In the case of FSTCVVSGSSLYCGGLTLVH, the amyloid nucleation score is reported as “inactive”.
